These results are taken from the nanobody polyreactivity screen of Harvey et al. (2022).

A short description of the data set: yeast display, Sf9 membrane polyspecificity reagent, FACS + sequencing; frameworks hold sequencing errors. In outline: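 Using colony PCR, genes from sorted yeast display clones were amplified, then sequenced on MiSeq at 2 × 250 and filtered by CDR length. The clones had been stained with 10% biotinylated, detergent-solubilized Sf9 membrane reagent for 1 hour at 4 °C and sorted by FACS into low and high (top ~1%) gates on anti-HA and streptavidin fluorescence. Polyreactivity labels come from the gate of origin.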
As for “QVQLVESGGGLVQAGGSLRLSCAASGRTFPDYAMGWYRQAPGKERELVARISYSGGSTSYADSVKGRFTISRDNAKNTVYLQMNSLKPEDTAVYYCNRETAYAVGRFEYCGQGTQVTVSS”, the “polyreactivity (PSR sort gate)” value was “low polyreactivity”.

“QVQLVESGGGLVQAGGSLRLSCAASGGTFGSNAMGWYRQAPGKERELVARISGRGGRTYYADSVKGRFTISRDNAKNTVYLQMNSLKPEDTAVYYCAATYIIWGQGTQVNVSS”: the “polyreactivity (PSR sort gate)” value was “high polyreactivity”.

With “QVQLVESGGGLVQAGGSLRLSCAASGNIFSYNAMGWYRQAPGKERELVAGISTAGTTSYADSVKGRFTISRDNAKNTVYLQLNSLKPEDTAVYYCAKRRYYWTNLHYFLGYDYWGQGTQVTVSS”, the “polyreactivity (PSR sort gate)” value is “low polyreactivity”.

On to “QVQLVESGGGLVQAGGSLRLSCAASGFTFYSNAMGWYRQAPGKERELVAAITSSGGSTYYADSVKGRFTISRDNAKNTVYLQMNSLKPEDTAVDYCNVRVGYRRYGYWGQGTQVTVSS”, for which the “polyreactivity (PSR sort gate)” value is given as “high polyreactivity”.

As for “QVQLVESGGGLVQAGGSLRLSCAASGSIFAQYAMGWYRQAPGKERELVAAISRTGGGTYYADSVKGRFTISRDNAKNTVYLQMNSLKPEDTAVYYCAAVPGLFYLPYDYWGQGTQVTVSS”, the “polyreactivity (PSR sort gate)” value is “low polyreactivity”.

Regarding “QVQLVESGGGLVQAGGSLRLSCAASGSIFWYNAMGWYRQAPGKERELVAAITSGGTTSYADSVKGRFTISRDNAKNTVYLQMNSLKPEDTAVYYCAKDWNDDQHSWDTPFDYWGQGTQVTVSS”, the “polyreactivity (PSR sort gate)” value is “low polyreactivity”.

In the case of “QVQLVESGGGLVQAGGSLRLSCAASGFTFRKNAMGWYRQAPGKERELVAAINSSGGSTYYADSVKGRFTISRDNAKNTVYLQMKSLKQEDTAVYSCNAVGRSLARPRGDYWGQGTQVTVSS”, the “polyreactivity (PSR sort gate)” value is reported as “high polyreactivity”.

For “QVQLVESGGGLVQAGGSLRLSCAASGSIIYTNAMGRYRQAPGKEREVVAAITGTTTTNYADSVKGRFTISRDNAKNTVYVQMNSLKPEDTAVYYCNADYDRSRVYYSVELYDYWGQGTQVTVSS”, the “polyreactivity (PSR sort gate)” value is “low polyreactivity”.

In the case of “QVQLVESGGGLDQAGGSLRLSCAASGRTFGRNAMGWYRQAPGKESELVAASSTRGGSTFYADSVKARFTISRDNAKNTVYLQMNSLKPEDTAVYYCAAAGTARWPRPTSGLLDYYYWGQVTQVTVSS”, the “polyreactivity (PSR sort gate)” value is listed as “high polyreactivity”.

Consider “QVQLVESGGGLVQAGGSLRLSCAASGSTFYYYAMGWYRPAPGKERELVATIDSGTSTYYADSVKGRFTISRDNAKNTVYFQMNSLKPEDTAVYYCAAKTWSWSYGYNYWGQGTLVTVSS”, for which the “polyreactivity (PSR sort gate)” value is recorded as “low polyreactivity”.

Consider “QVQLVESGGGLVQAGGSLRLSCAASGSIFYHNAMGWYRQAPGKERELVAAITSRGGRTTYADSVKGRFTISRDNAKNTVYLQMNSLKPEDTAVYYCNAVYTGYSYISRVDYWGQGTQVTVSS”, for which the “polyreactivity (PSR sort gate)” value is recorded as “low polyreactivity”.

For “QVQLVESGGGLVQAGGSLRLSCAASGSTFSGNAMGWYRQAPGKERELVAAITSSGGSTYYADSVKGRFTISRDNAKNTVYLQMNSLKPEDTAVYYCAADGQYYYGFDYWGQGTQVTVSS”, the “polyreactivity (PSR sort gate)” value is “high polyreactivity”.

Consider “QVQIVESGGGLVQAGGSLRLSCAASGSTFGRYAMGWYRQAPGKEREMVAAISASGGSTYYADSVKGRFTISRDYAKNTVYVQMNSLKPEDTAVYYCAALIDVITCQYDYWGHGTQVTVSS”, for which the “polyreactivity (PSR sort gate)” value is reported as “high polyreactivity”.

Take “QDQLVESGGGLVQAGGSLRLSCAAYGSTSYTNAMGWYRQAPGKERELVAGITRSGDSTYYADSVKGRFTISRDTAKNTVYLQMKSLKPEDTAVYYCAADIGDYWLGYYTGYYYLGQGTQVTVSS”: the “polyreactivity (PSR sort gate)” value is on record as “high polyreactivity”.

In the case of “QVQLVESGGGLVQAGGSLRLSCAASGFIFWYYDMGWYRQAPGKERELVAAISDRGGSTSYADSVKGRFTISRDNAKNTVYLQMNSLKPEDTAVYSCAVDRSLSPFAYDYWGQGTQVTVSS”, the “polyreactivity (PSR sort gate)” value was “low polyreactivity”.

On to “QDQLVESGGGLVQAGGSLRLSCAASGRTFVHYVMGWYRQAPGKERELVAAITSSGGSTYADSVKGRFTISRDNAKNTVYLQMNSLKPEDTAVYYCAADYLDGVGDVEHDYWGQGTQVTVSS”, for which the “polyreactivity (PSR sort gate)” value is reported as “low polyreactivity”.

As to “QVQLVESGGGLVQAGGSLRLSCAASGRTFGYNAMGWYRQAPGKERELVATISSSTVSTSYADSVKGRFTISRDNAKNTVYLQMNSLKPEDPAVYYCNARSRVSPTERVPYDSWGQGTQVTVSS”, the “polyreactivity (PSR sort gate)” value is reported as “low polyreactivity”.

On to “QVQLVESGGGLVQAGGSLRLSCAASGSTFSANGMGWYRQAPGKERELVAAISARGGITYYADSVKGRFTISRDNAKNTVYLQMNSVKPEDTAVYYCNQRKYYRSTKYNYWGQGTQVTVSS”, for which the “polyreactivity (PSR sort gate)” value is “high polyreactivity”.

As for “QVQLQESGGGLVQAGGSLRLGCAASGNISDPGYMGWYRQAPGKEREFVAAIAAGSNTNYADSVKGRFTISRDNAKNTVYLLMNSLKPEDTAVFYCAVDSYARVQYEYWGQGTQVTVYS”, the “polyreactivity (PSR sort gate)” value was “low polyreactivity”.

Turning to “QVQLVESGGGLVQAGGSLRLSCAASGFIFRNYAMGWYRQAPGKERELVAGITSSGGRTYYADSVKGRFTISRDNAKNTVYLQMNSLKPEDTAVYYCNIDVLYYRYTSFSNRYYYWGQGTQVTVSS”, the “polyreactivity (PSR sort gate)” value is “high polyreactivity”.

As to “QVQLVESGGGLVQAGGSLRLSCAACGSIVVGYAMGWYRQAPGKERELVAVITSDGSTNYADSVKGRFTISRDNAKHTVYLPMNSLKPEDTAVYYCAADPWLGTGRYDYWGQGTQVTVST”, the “polyreactivity (PSR sort gate)” value is given as “low polyreactivity”.

For “QVQLVESGGGLVQAGGSLRLSCAASGFIFRDNAMGWSRQAPGKERELVAAISKSGGRTYYADSVKGRFTISRDNAKNTVYLQMNSLKPEETAVYYCAKASRYWSLYYWGQGSQVTVSS”, the “polyreactivity (PSR sort gate)” value is “high polyreactivity”.

Consider “QVQLVESGGGLVQAGGSLRLSCAASGRIFRYYAMGWYRQAPGKERELVAAITRGGRTNYADSVKGRFTISRDNAKNTVYLQMNSLKQEDTAFYYCAARNVFQSVHVRGGYWGQGTQVTVSS”, for which the “polyreactivity (PSR sort gate)” value was “high polyreactivity”.

On to “QVQLVESGGGLDQAGGSLRLSCAASGFTFWYYAMGWYRQAPGKERYLVATISSSGGSTYYADSVKGRFTISRDTAMNTVYLQMNSLKPEDTAVYYCNADDNPVWEYDYWGQGTLVTVSS”, for which the “polyreactivity (PSR sort gate)” value is listed as “low polyreactivity”.

For the sequence “QVQLVESGGCLVQAGGSLRLSCAASGSISTNYAMGWYRQAPGKERELVAAISDSSGSTYYADSVKGRFTISRDNAKNTVYLQMNSLKPVDTAVYYCNADSQGGRDVHYDYEYYYWGQGTQVTVSS”, the “polyreactivity (PSR sort gate)” value is listed as “low polyreactivity”.

With “QVQLVESGGGLVQAAGSLRLICAASGLTFGANDMGWSRQAPGTERELVAAIDWSGGSTFFADSVKGRFTISRDNAKNTVYLQMNTLKPEDTAVYYCAALGFGYPYPEYDSWGQGTQVTVSA”, the “polyreactivity (PSR sort gate)” value was “low polyreactivity”.

As to “QVHLVESGGGLVQAGGSLRLSCAASGSTIRSYAMGWNRQAPGKERELVARIAYSSGGTYYADSVKGRFTISRDNAKNTVYLQMNSLKPEDTAVYYCAKPSPITSYPRFDYWGQGTQVTVSS”, the “polyreactivity (PSR sort gate)” value is “high polyreactivity”.

Consider “QVQLVESGGGLVQAGGSLRISCAASGSILDGNAMGLYRQAPGKERELFAGISESDGSTNYADSVKGRFTISRDNAKNTVYLQMNSLNPEDTAVYYCAADIWTCGDIPYDYWGQGTQVTVSS”, for which the “polyreactivity (PSR sort gate)” value was “low polyreactivity”.

As for “QVHLVESGGGLVQAGGSLRLSCAASGSTFPRYSMGWYRQAPGTERELVAAITQSGGRTYYADSVKGSFTISRDNAKNTVYLQMNSRKPEDTAVYYFAAEDGLRGNRLYYWGHGTQVTVSS”, the “polyreactivity (PSR sort gate)” value is on record as “high polyreactivity”.

Turning to “QVQLVESGGGLVQAGGSLRLSCAASGRIFKIYAMGWYRQAPGKERELVAAISGRGGSTYYADSVKGRFTISRDNAKNTVYLQMNSLKPEDTAVYYCAAVGYGFSAYSTYDYWGQGTQVTVSS”, the “polyreactivity (PSR sort gate)” value was “high polyreactivity”.

Consider “QVQLVESGGGLVQAGGSLRLSCAASGRTFRYYAMGWYRQAPGKEREFVAAITSRSSRTYYADSVKGRFTISRDNAKNTVYLQMNSLKPEDTAVYYCNADYRRYPEFDYWGQGTQVTVSS”, for which the “polyreactivity (PSR sort gate)” value is “high polyreactivity”.

For “QVQLVESGGGLVQAGGSLRLSCAASGSIFTYYAMGWYRQATRKERELLADIRWSVGSTYYADSVKGRFTISRDNAKNTVYLQMNSLKPEDTAVYYCNAVVYIYYLTSYKYGNDSWGQGTQVTVSS”, the “polyreactivity (PSR sort gate)” value is listed as “low polyreactivity”.

For “QVQLVESGGGLVQAGGSLRLSCAASGSIFNPNAMGWYRQAPGKETELVAAISWISGRTYYADSGKGRFTISRDNAKNTVYLQMISLKTEDTAVYYCAARYPLTQSKYYYWGQWTQVTVSS”, the “polyreactivity (PSR sort gate)” value is on record as “high polyreactivity”.

For the sequence “QVQLVESGGGLVQAGGSLRLSCAASGRIFTYNAMGWYRQAPGKERELVAVISRRGGSTYYADSVKGRFTSSRDNAKNPVYLQMNSLTPEDSAVYYCAADLPSYPYEYWGQGPQVTVSS”, the “polyreactivity (PSR sort gate)” value is given as “low polyreactivity”.

For “QVQLVESGGGLVQAGGSLRLSCAASGRIFVWNTMGWYRQAPGKERELVAAITSGGSTTYADSVKGRFTISRDNAKNSVSFQMNSLKPEDTAVYYCNTELDLYHPGDDYWGQGTQVTVSS”, the “polyreactivity (PSR sort gate)” value was “high polyreactivity”.

“QVQLVESGGGLVQAGGSLRLSCAASGSIFYHYVMGWYRQAPGKERELVAAISSSGRTYYADSVKGRFTISRDNAKNTVYLQMNSLKPEDTAVYYCAAYQKYYLRKYEYWGQGTQVTVSS”: the “polyreactivity (PSR sort gate)” value is “low polyreactivity”.

For the sequence “QVQLVESGGGLVQAGGSLRLSCAASGFIFDYYAMGWYRQAPGKERELVAAITSRGGSTYYADSVKGRFTISRDNAKNTVYLQMNSLKPEDTAVYYCAARRRYAEYNYWGQGTQVTVSS”, the “polyreactivity (PSR sort gate)” value is reported as “high polyreactivity”.

For the sequence “QVQLVESGGGLVQAGGSLRLSCAASGSIFPSYAMGWYRQAPRKERELVATIGRGGTTNYADSVKGRFTISRDNAKNTVYLQMNSLKPEDTAVYSCNAERIWRYKDGYDYWGQGTQVTVSS”, the “polyreactivity (PSR sort gate)” value is reported as “high polyreactivity”.

“QVQLVESGGGLVQAGGSLRLSCAASGSTSDINAMGWYRQAPGKERELVAVITDSSNTDYADSVKGRFTISRDNAKNTVYLQMNSLKPEDTADDYCAADRDEPDPYDYWGQGTQVTVSS”: the “polyreactivity (PSR sort gate)” value is “low polyreactivity”.

Consider “QVQLVESGGGLVQAGGSLRLSCAASGFTLADNTMGWYRQAPGKEMELVAAITSGASTYYADSVKGRFTISRDNAKNTVYLQMNSLKPEDTAVYYCAALYYWLSGYDYWGQGTQVTVSS”, for which the “polyreactivity (PSR sort gate)” value is recorded as “low polyreactivity”.

As for “QVQLVESGGGLVQAGGSLRLSCAASGRTSDINTMGWYRQAPGKERELVAAISDSDGTTYYADSVKGRFTISRDNAKNTVYLQMNSLKPDDTAVYYCAAERATVKFGYWGQGTQVTVSS”, the “polyreactivity (PSR sort gate)” value is listed as “low polyreactivity”.
